Measurements reported in US20180326022A1, “COMPOSITIONS AND METHODS FOR IMPROVING HEART FUNCTION AND TREATING HEART FAILURE” (The Trustees of the University of Pennsylvania, priority 2017, published 2018).

Target: detyrosinated microtubules (rat cardiomyocytes) (rat)
Test: cell-based or functional assay

human tubulin tyrosine ligase (TTL) (from UniProt Q8NG68 1-377)
Detyr (% cell area), immunofluorescence, TTL overexpressing cells (null: 43.9): 12.9 % cell area
